# Experimental data as given in patent US4605614A, “Method for measuring plasmin” (Nitto Boseki Co., Ltd., priority 1981, dated 1986).
# B1: plasmin (pig) (Sus scrofa) (protein)
# chain: RIYLSECKTGNGKNYRGTTSKTKSGVICQKWSVSSPHIPKYSPEKFPLAGLEENYCRNPDNDEKGPWCYTTDPETRFDYCDIPECEDECMHCSGEHYEGKISKTMSGIECQSWGSQSPHAHGYLPSKFPNKNLKMNYCRNPDGEPRPWCFTTDPNKRWEFCDIPRCTTPPPTSGPTYQCLKGRGENYRGTVSVTASGHTCQRWSAQSPHKHNRTPENFPCKNLEENYCRNPDGETAPWCYTTDSEVRWDYCKIPSCGSSTTSTEYLDAPVPPEQTPVAQDCYRGNGESYRGTSSTTITGRKCQSWVSMTPHRHEKTPGNFPNAGLTMNYCRNPDADKSPWCYTTDPRVRWEYCNLKKCSETEQQVTNFPAIAQVPSVEDLSEDCMFGNGKRYRGKRATTVAGVPCQEWAAQEPHRHSIFTPETNPRAGLEKNYCRNPDGDDNGPWCYTTNPQKLFDYCDVPQCVTSSFDCGKPKVEPKKCPARVVGGCVSIPHSWPWQISLRHRYGGHFCGGTLISPEWVLTAKHCLEKSSSPSSYKVILGAHEEYHLGEGVQEIDVSKLFKEPSEADIALLKLSSPAIITDKVIPACLPTPNYVVADRTACYITGWGETKGTYGAGLLKEARLPVIENKVCNRYEYLGGKVSPNELCAGHLAGGIDSCQGDSGGPLVCFEKDKYILQGVTSWGLGCALPNKPGVYVRVSRFVTWIEEIMRRN
# What was measured:
# Assay in all cases: Km, Vmax and Vmax/Km of substrates for plasmin (pig)
# Format in all cases: biochemical, Porcine (pig)
# [1] = substrate: NCCCC[C@H](NC(=O)[C@H](Cc1ccccc1)NC(=O)[C@H](N)CCCCNC(=O)Cc1ccccc1)C(=O)Nc1ccc(O)c(C(=O)O)c1; conditions: other: TABLE 2, CHA substrates, plasmin (pig), 2,6-xylenol 615 nm
# Description: (§1) The substrates produced by the above examples were used in the measurement of plasmin as follows: The principle of this measurement comprises quantitatively analyzing the decomposition product p-nitroaniline or 3-carboxy-4-hydroxyaniline produced by the enzymatic hydrolysis, by measuring the absorbance (O.D.) directly at 405 nm in the case of p-nitroaniline and, in the case of the 3-carboxy-4-hydroxyaniline at 615 nm after condensing it with 2,6-xylenol in the presence of an oxidant to develop a color.
# (§2) For the measurements of these constants, the following method is adopted:
# (§3) The enzyme and the substrate are mixed in a buffer solution and subjected to the hydrolysis for 30 seconds. The concentration of the substrate [S] is changed and the enzyme concentration is maintained constant. By measuring the absorbance (O.D.), the initial velocity of the hydrolysis can be determined. Where 1/V is plotted as a function of 1/[S], there is obtained a Lineweaver and Burk's linea from which graph the Vmax and Km can be determined.
# [2] = substrate: NCCCC[C@@H](N)C(=O)N[C@@H](Cc1ccccc1)C(=O)N[C@@H](CCCCN)C(=O)Nc1ccc(O)c(C(=O)O)c1; conditions: other: TABLE 2, CHA substrates, plasmin (pig), 2,6-xylenol 615 nm
# Description: as §1, §2, §3
# [3] = substrate: Cc1ccc(S(=O)(=O)NCC(=O)N2CCC[C@H]2C(=O)N[C@@H](CCCCN)C(=O)Nc2ccc([N+](=O)[O-])cc2)cc1
# Description: as §1, §2, §3
# [4] = substrate: Cc1ccc(CCOC(=O)CC[C@@H](N)C(=O)N[C@@H](Cc2ccccc2)C(=O)N[C@@H](CCCCN)C(=O)Nc2ccc([N+](=O)[O-])cc2)cc1; conditions: other: TABLE 1, PNA substrates, plasmin (pig), 405 nm
# Description: as §1, §2, §3
# [5] = substrate: CS(=O)(=O)NCCCC[C@@H](N)C(=O)N[C@@H](Cc1ccccc1)C(=O)N[C@@H](CCCCN)C(=O)Nc1ccc(O)c(C(=O)O)c1; conditions: other: TABLE 2, CHA substrates, plasmin (pig), 2,6-xylenol 615 nm
# Description: as §1, §2, §3
# [6] = substrate: CC(C)OC(=O)C[C@@H](N)C(=O)N[C@@H](Cc1ccccc1)C(=O)N[C@@H](CCCCN)C(=O)Nc1ccc(O)c(C(=O)O)c1; conditions: other: TABLE 2, CHA substrates, plasmin (pig), 2,6-xylenol 615 nm
# Description: as §1, §2, §3
# [7] = substrate: Cc1ccc(S(=O)(=O)NCCCC[C@@H](N)C(=O)N[C@@H](CC(C)C)C(=O)N[C@@H](CCCCN)C(=O)Nc2ccc([N+](=O)[O-])cc2)cc1; conditions: other: TABLE 1, PNA substrates, plasmin (pig), 405 nm
# Description: as §1, §2, §3
# [8] = substrate: NCCCC[C@H](NC(=O)[C@H](Cc1ccccc1)NC(=O)[C@H](N)CCC(=O)NCCCCc1ccccc1)C(=O)Nc1ccc([N+](=O)[O-])cc1; conditions: other: TABLE 1, PNA substrates, plasmin (pig), 405 nm
# Description: as §1, §2, §3
# [9] = substrate: NCCCC[C@H](NC(=O)[C@H](Cc1ccccc1)NC(=O)[C@H](N)CCCCNS(=O)(=O)c1cccc2ccccc12)C(=O)Nc1ccc(O)c(C(=O)O)c1; conditions: other: TABLE 2, CHA substrates, plasmin (pig), 2,6-xylenol 615 nm
# Description: as §1, §2, §3
# [10] = substrate: NCCCC[C@H](NC(=O)[C@H](Cc1ccccc1)NC(=O)[C@H](N)CCC(=O)NCCc1ccccc1)C(=O)Nc1ccc([N+](=O)[O-])cc1; conditions: other: TABLE 1, PNA substrates, plasmin (pig), 405 nm
# Description: as §1, §2, §3
# [11] = substrate: CC(=O)NCCCC[C@@H](N)C(=O)N[C@@H](Cc1ccccc1)C(=O)N[C@@H](CCCCN)C(=O)Nc1ccc(O)c(C(=O)O)c1; conditions: other: TABLE 2, CHA substrates, plasmin (pig), 2,6-xylenol 615 nm
# Description: as §1, §2, §3
# [12] = substrate: Cc1ccc(CCNC(=O)CC[C@@H](N)C(=O)N[C@@H](Cc2ccccc2)C(=O)N[C@@H](CCCCN)C(=O)Nc2ccc([N+](=O)[O-])cc2)cc1; conditions: other: TABLE 1, PNA substrates, plasmin (pig), 405 nm
# Description: as §1, §2, §3
# [13] = substrate: NCCCC[C@H](NC(=O)[C@H](Cc1ccccc1)NC(=O)[C@H](N)CCCCNC(=O)c1ccc2ccccc2c1)C(=O)Nc1ccc(O)c(C(=O)O)c1; conditions: other: TABLE 2, CHA substrates, plasmin (pig), 2,6-xylenol 615 nm
# Description: as §1, §2, §3
# [14] = substrate: CCCC(=O)NCCCC[C@@H](N)C(=O)N[C@@H](Cc1ccccc1)C(=O)N[C@@H](CCCCN)C(=O)Nc1ccc(O)c(C(=O)O)c1; conditions: other: TABLE 2, CHA substrates, plasmin (pig), 2,6-xylenol 615 nm
# Description: as §1, §2, §3
# [15] = substrate: NCCCC[C@H](NC(=O)[C@H](Cc1ccccc1)NC(=O)[C@H](N)CCCCNC(=O)OCc1ccccc1)C(=O)Nc1ccc(O)c(C(=O)O)c1; conditions: other: TABLE 2, CHA substrates, plasmin (pig), 2,6-xylenol 615 nm
# Description: as §1, §2, §3
# [16] = substrate: NCCCC[C@H](NC(=O)[C@H](Cc1ccccc1)NC(=O)[C@H](N)CCC(=O)OC1CCCCC1)C(=O)Nc1ccc([N+](=O)[O-])cc1; conditions: other: TABLE 1, PNA substrates, plasmin (pig), 405 nm
# Description: as §1, §2, §3
# [17] = substrate: Cc1ccc(S(=O)(=O)NCCCC[C@@H](N)C(=O)N[C@@H](Cc2ccccc2)C(=O)N[C@@H](CCCCN)C(=O)Nc2ccc(O)c(C(=O)O)c2)cc1; conditions: other: TABLE 2, CHA substrates, plasmin (pig), 2,6-xylenol 615 nm
# Description: as §1, §2, §3
# [18] = substrate: Cc1ccc(CCNC(=O)CC[C@@H](N)C(=O)N[C@@H](Cc2ccccc2)C(=O)N[C@@H](CCCCN)C(=O)Nc2ccc(O)c(C(=O)O)c2)cc1; conditions: other: TABLE 2, CHA substrates, plasmin (pig), 2,6-xylenol 615 nm
# Description: as §1, §2, §3
# [19] = substrate: Cc1ccc(S(=O)(=O)NCCCC[C@@H](N)C(=O)N[C@@H](Cc2ccccc2)C(=O)N[C@@H](CCCCN)C(=O)Nc2ccc([N+](=O)[O-])cc2)cc1
# Description: as §1, §2, §3
# [20] = substrate: Cc1ccc(S(=O)(=O)NCCCC[C@H](N)C(=O)N[C@@H](Cc2ccccc2)C(=O)N[C@@H](CCCCN)C(=O)Nc2ccc(O)c(C(=O)O)c2)cc1; conditions: other: TABLE 2, CHA substrates, plasmin (pig), 2,6-xylenol 615 nm
# Description: as §1, §2, §3
# [21] = other: Porcine Plasmin, comparison table in description
# [22] = other: TABLE 1, PNA substrates, plasmin (pig), 405 nm
protein,measurement,setting,value
B1,Km,[1],357 µM
same,Km,[2],222 µM
same,Km,[3]; [21],278 µM
same,Km,[3]; [22],278 µM
same,Km,[4],42.8 µM
same,Km,[5],326 µM
same,Km,[6],352 µM
same,Km,[7],189 µM
same,Km,[8],45.4 µM
same,Km,[9],596 µM
same,Km,[10],27.9 µM
same,Km,[11],250 µM
same,Km,[12],39.4 µM
same,Km,[13],325 µM
same,Km,[14],239 µM
same,Km,[15],496 µM
same,Km,[16],32.2 µM
same,Km,[17],206 µM
same,Km,[18],417 µM
same,Km,[19]; [21],16 µM
same,Km,[19]; [22],15.8 µM
same,Km,[20],292 µM
